T1: His-tagged human B7-H3 (human, UniProt Q5ZPR3-2 29-245, limits assumed)
T1 construct: Bought His-tagged protein coated on the ELISA plate; also called hu B7-H3; CD276
T1 sequence (looked up): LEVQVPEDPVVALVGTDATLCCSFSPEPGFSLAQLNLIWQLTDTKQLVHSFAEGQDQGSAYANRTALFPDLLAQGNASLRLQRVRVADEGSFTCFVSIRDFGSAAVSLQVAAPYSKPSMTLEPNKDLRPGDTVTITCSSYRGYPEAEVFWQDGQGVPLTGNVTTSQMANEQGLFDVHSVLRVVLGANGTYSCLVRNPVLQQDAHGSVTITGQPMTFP

T2: His-tagged cynomolgus monkey B7-H3 (cynomolgus monkey)
T2 chain: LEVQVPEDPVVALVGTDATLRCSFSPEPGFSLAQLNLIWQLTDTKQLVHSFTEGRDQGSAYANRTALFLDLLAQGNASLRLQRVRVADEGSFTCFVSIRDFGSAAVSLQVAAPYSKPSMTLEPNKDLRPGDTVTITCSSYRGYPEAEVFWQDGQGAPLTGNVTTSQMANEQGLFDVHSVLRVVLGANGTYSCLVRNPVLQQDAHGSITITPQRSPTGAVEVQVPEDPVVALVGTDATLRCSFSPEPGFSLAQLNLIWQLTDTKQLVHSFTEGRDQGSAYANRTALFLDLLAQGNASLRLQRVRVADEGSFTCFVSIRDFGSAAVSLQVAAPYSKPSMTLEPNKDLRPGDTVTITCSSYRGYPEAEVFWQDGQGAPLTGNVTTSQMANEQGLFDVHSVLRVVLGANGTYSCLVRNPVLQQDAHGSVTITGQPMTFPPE

T3: His-tagged mouse B7-H3 (mouse, UniProt Q8VE98 29-244, limits assumed)
T3 construct: Bought His-tagged protein coated on the ELISA plate; also called mu B7-H3; murine B7-H3
T3 sequence (looked up): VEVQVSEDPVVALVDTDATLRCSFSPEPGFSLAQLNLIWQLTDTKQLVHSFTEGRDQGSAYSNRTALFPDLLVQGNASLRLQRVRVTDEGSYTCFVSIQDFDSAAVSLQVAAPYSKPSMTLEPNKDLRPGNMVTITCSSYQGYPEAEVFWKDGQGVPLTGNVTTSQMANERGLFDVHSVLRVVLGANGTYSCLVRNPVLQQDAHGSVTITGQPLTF

T4: B7-H3 on B7-H3-expressing CHO cells (Genescript) (UniProt Q5ZPR3 29-534, limits assumed)
T4 construct: whole, on cells; also called CHO-K1/B7-H3; MFI B7-H3
T4 sequence (looked up): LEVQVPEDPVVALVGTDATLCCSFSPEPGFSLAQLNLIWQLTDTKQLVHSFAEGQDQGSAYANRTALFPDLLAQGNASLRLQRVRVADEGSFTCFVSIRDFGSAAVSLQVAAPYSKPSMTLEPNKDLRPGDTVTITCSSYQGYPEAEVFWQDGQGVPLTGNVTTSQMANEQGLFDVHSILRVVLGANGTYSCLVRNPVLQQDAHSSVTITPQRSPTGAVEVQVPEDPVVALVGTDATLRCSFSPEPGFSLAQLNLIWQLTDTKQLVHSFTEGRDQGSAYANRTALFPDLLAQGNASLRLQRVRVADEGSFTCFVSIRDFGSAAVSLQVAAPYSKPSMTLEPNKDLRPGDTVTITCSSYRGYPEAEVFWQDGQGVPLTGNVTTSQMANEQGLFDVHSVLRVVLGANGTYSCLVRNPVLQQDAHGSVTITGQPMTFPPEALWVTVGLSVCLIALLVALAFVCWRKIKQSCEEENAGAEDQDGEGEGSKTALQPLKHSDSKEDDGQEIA


Experiments:
[1] = target: T1, His-tagged human B7-H3; assay: ELISA, coated His-tagged antigen, scFv-Fc 1 ug/ml
[2] = target: T2, His-tagged cynomolgus monkey B7-H3; assay: ELISA, coated His-tagged antigen, scFv-Fc 1 ug/ml
[3] = target: T3, His-tagged mouse B7-H3; assay: ELISA, coated His-tagged antigen, scFv-Fc 1 ug/ml
[4] = target: T1, His-tagged human B7-H3; assay: ELISA OD450 on hu B7-H3 over OD450 on mu B7-H3
[5] = target: T4, B7-H3 on B7-H3-expressing CHO cells …; assay: flow cytometry, B7-H3-expressing CHO cells, 10 ug/ml
Method in brief: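 Antibodies at 10 μg/ml in PBS/1% BSA/0.01% NaN3 incubated 60 min on ice with ~1.5e5 cells; parental CHO cells as counterscreen. After washing, read by flow cytometry; values are mean fluorescent intensities (MFI).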

Row | Binder | ELISA OD450 @ 1 ug/ml [1] | ELISA OD450 @ 1 ug/ml [2] | ELISA OD450 @ 1 ug/ml [3] | hu:mu ratio [4] | MFI @ 10 ug/ml [5]
1 | 40633p1.1.H11 (scFv, V domains shown, Tested as scFv-Fc (Expi293 supernatant)) VH: EVQLLESGGGLVQPGGSLRLSCAASGFTFSSYPMTWVRQAPGKGLEWVADINSGGGTTLYADAVKGRFTISRDNSKNIVYLQMNSLRGEDTAVYYCAKHLDYYSYGMDVWGQGTTVTVSS VL: QSVLTQPPSASGTPGQRVTISCSGVTSKIGSKYVHWYQQLPGTAPKLLIYRNFERPSGVPDRFSGSTSGTSASLAISGLQSEDEADYYCATWEGALNGWVFGGGTKLTVL | 2.07 OD450 | 1.92 OD450 | 1.88 OD450 | 1.1 | 81300 MFI
2 | 40511p1.1.D8 (scFv, V domains shown, Tested as scFv-Fc (Expi293 supernatant)) VH: DVQLVESGGGVVRPGESLRLSCAASGFTFSSYAMSWVRQAPGEGLEWVSSISGSGGSTLYADSVKGRFTISRDSSNNSLYLQMNSLRAEDTAVYYCAKARNNFFDYWGLGTLVTVSS VL: EIVLTQSPGTLTLSPGERATLSCRASRSILTSLAWYQQRPGQAPRLLIYGANSRATGIPDRFSGSGSGTEFTLTISSLQSEDFAVYYCQQYYDWLTITFGGGTKVEIK | 2.13 OD450 | 2.02 OD450 | 0.891 OD450 | 2.39 | 79200 MFI
3 | 40511p1.1.D6 (scFv, V domains shown, Tested as scFv-Fc (Expi293 supernatant)) VH: DVQLVESGGGVVRPGESLTLSCAASGFTINSYAVSWVRQAPGEGLEWVSGISGSGVRYYADSVKGRFTISRDNSNNTLYLQMNSLRAEDTAVYYCARSNKVTWNNFFDYWGLGTLVTVSS VL: EVVLTQSPGTLTLSPGERATLSCRASRSILTSLAWYQQKPGQAPRLLIYNTVTRATGIPARFSGSGSGTEFTLTINSLQSEDFAVYYCQQYYDWPPLTFGGGTKVEIK | 1.92 OD450 | 2.11 OD450 | 1.61 OD450 | 1.19 | 84200 MFI
4 | 40511p1.1.G3 (scFv, V domains shown, Tested as scFv-Fc (Expi293 supernatant)) VH: DVQLVESGGGVVRPGESLTLSCAASGFTINSYAVSWVRQAPGEGLEWVSGISGSGVRYYADSVKGRFTISRDDSNNTLYLQMNSLRAEDTAVYYCARSNKVTWNNFFDYWGLGTLVTVSS VL: EVVLTQSPGTLTLSPGERATLSCRASRSILTSLAWYQQKPGQAPRLLIYNTVTRATGIPARFSGSGSGTEFTLTINSLQSEDFAVYYCQQYYDWPPLTFGGGTKVEIK | 2.13 OD450 | 1.97 OD450 | 1.71 OD450 | 1.24 | 89100 MFI

Further lines, results first:

Row | ELISA OD450 @ 1 ug/ml [1] | ELISA OD450 @ 1 ug/ml [2] | ELISA OD450 @ 1 ug/ml [3] | hu:mu ratio [4] | MFI @ 10 ug/ml [5] | Binder
5 | 1.53 OD450 | 1.95 OD450 | 1.03 OD450 | 1.49 | 63200 MFI | 40633p1.2.D11 (scFv, V domains shown, Tested as scFv-Fc (Expi293 supernatant)) VH: EVQLESGGGLVQPGGSLRLSCAASGFTVSYYGMSWVRQAPGKGLEWVSAIKQDGSEKYYADSVKGRFTISRDNSKNTLYLQMNSLRAEDTAVYYCARHWNDYSNAMNVWGQGTTVTVSS VL: QSVLTQPPSASGTPGQRVTISCSGSTSNIAIDFVNWYQQLPGTAPKLLIYTIDQRPSGVPDRFSGSKSGTSASLAISGLQSEDEAVYYCASWDASLNGWVFGRGTKLTVL
6 | 1.49 OD450 | 1.94 OD450 | 1.38 OD450 | 1.08 | 14100 MFI | 40633p1.2.D1 (scFv, V domains shown, Tested as scFv-Fc (Expi293 supernatant)) VH: EVQLLESGGGLVQPGGSLRLSCAASGFTFDVYGMSWVRQAPGKGLEWVSAINWNGGSTYYADSVKGRFTISRDNSENTLYLQMNSLRAEDTAVYYCAKEKWKHFIYYGMDVWGQGTTVTVSS VL: QSVLTQPASASGTPGQTVSISCSGSSSNIDSNTANWYQQLPGTAPKLLIYSNNQRPSGVPDRFSGSKSDTSASLAISGLQSEDEGDYYCSAWDDNLNGWLFGGGTKLTVL
7 | 2.15 OD450 | 2.08 OD450 | 1.92 OD450 | 1.12 | 86600 MFI | 40633p1.2.E5 (scFv, V domains shown, Tested as scFv-Fc (Expi293 supernatant)) VH: EVQLLESGGGLVQPGGSLRLSCAASGFTFDGYGMSWVRQAPGKGLEWVSAISGNSGSIYYADSVKGRFTISRDNSKNTLYLQMNSLRAEDTAAYYCAKEKWKHFIYYGMDVWGQGTTVTVSS VL: not shown

From patent US20260008852A1 (CRYSTAL BIOSCIENCE, published 2026)
